Tests used:
Experiment in all cases: AFM force spectroscopy
MBP-CBD protein = target: MBP-CBD protein
[1] = target: MBP-I^N of the Nostoc species PCC7120 (Nsp) split intein (Nostoc species PCC7120)
[2] = target: MBP-I^N of the Thermosynechococcus vulcanus (Tvu) split intein (Thermosynechococcus vulcanus)
[3] = target: MBP-I^N of the Oscillatoria limnetica (Oli) split intein (Oscillatoria limnetica)

Row | Substance | Fad (adhesion force) (MBP-CBD protein) [pN] | Fad (adhesion force, mode of the lognormal distribution) [1] [pN] | Fad (adhesion force, mode of the lognormal distribution) [2] [pN] | Fad (adhesion force, mode of the lognormal distribution) [3] [pN]
1 | MBP-I^C-CBD of the Nostoc species PCC7120 (Nsp) split intein | < 30 |  |  | 
2 | MBP-I^C-CBD of the Oscillatoria limnetica (Oli) split intein | < 30 |  |  | 
3 | MBP-I^C-CBD of the Thermosynechococcus vulcanus (Tvu) split intein | < 30 |  |  | 
4 | cleaved CBD-I^C of the Nostoc species PCC7120 (Nsp) split intein (domain or fragment) |  | 52 | 52 | 60
5 | cleaved CBD-I^C of the Oscillatoria limnetica (Oli) split intein (domain or fragment) |  | 52 | 52 | 52
6 | cleaved CBD-I^C of the Thermosynechococcus vulcanus (Tvu) split intein (domain or fragment) |  | 49 | 53 | 52

— publication PMC3760192
